Measured values from patent US20250222126A1 (ARIZONA BOARD OF REGENTS ON BEHALF OF ARIZONA STATE …, published 2025).
Where two headings read alike, the source gives them in different places.

B1: 1-Arm (designed binder)
LCB1 mini-binder coupled to a DNA handle that is hybridised to one arm of a 3-helix-bundle DNA nanostructure: DKEWILQKIYEIMRLLDELGHAEASMRVSDLIYEFMKKGDERLLEEAERLLEEVER
B2: 2-Arm (designed binder)
LCB1 mini-binder coupled to a DNA handle that is hybridised to an arm of a 3-helix-bundle DNA nanostructure: B1 LCB1 mini-binder coupled to a DNA handle that is hybridised to one arm of a 3-helix-bundle DNA nanostructure
B3: Tri-pdbody (designed binder)
LCB1 mini-binder coupled to a DNA handle that is hybridised to an arm of a 3-helix-bundle DNA nanostructure: B1 LCB1 mini-binder coupled to a DNA handle that is hybridised to one arm of a 3-helix-bundle DNA nanostructure
notes: also called 3-Arm; 3arm

Columns and labels:
[1] = target: Spike Delta (SARS-CoV-2)
[2] = target: T1, Spike Delta (SARS-CoV-2); test: SPR, Delta spike as solid phase [panel C]
T1 construct: also called Delta spike; delta spike protein

Binder | Kd [1] [nM] | Kd [2] [nM]
B1 | 0.14 | –
B2 | 0.14 | –
B3 | 0.1 | 0.216
